Data reported in US20220048967A1 (published 2022).
Numbered stars: 1 amine (or outer) side, 2 acyl side, 3 side chain; on linkers, the order of the positions; unused ones are H or OH. Square brackets hold non-standard residues; d marks the D form. Side chains are listed from the residue outwards. Ends that are not written are not given here. * marks the point of attachment. C20 diacid = O=C(O)CCCCCCCCCCCCCCCCCCC(=O)*; γGlu = O=C(O)[C@H](CCC(=O)[*:2])N[*:1]; AEEA = NCCOCCOCC(=O)O; Aib = CC(C)(N)C(=O)O

T1: human GIP receptor (human, UniProt P48546 22-466)
T1 sequence (looked up): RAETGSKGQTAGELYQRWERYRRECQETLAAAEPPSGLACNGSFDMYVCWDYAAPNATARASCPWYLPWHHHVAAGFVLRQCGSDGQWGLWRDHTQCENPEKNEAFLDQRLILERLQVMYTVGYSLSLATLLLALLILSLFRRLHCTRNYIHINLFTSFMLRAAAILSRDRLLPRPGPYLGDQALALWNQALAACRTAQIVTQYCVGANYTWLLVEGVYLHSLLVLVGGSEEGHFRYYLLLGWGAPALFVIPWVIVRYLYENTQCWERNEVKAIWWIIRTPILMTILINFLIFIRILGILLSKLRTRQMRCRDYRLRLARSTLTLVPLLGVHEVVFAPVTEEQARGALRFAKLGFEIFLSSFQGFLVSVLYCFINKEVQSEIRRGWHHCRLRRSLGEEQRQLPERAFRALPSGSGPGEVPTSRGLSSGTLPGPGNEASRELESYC

B1: Example 34 (peptide)
peptide: Y[Aib]EGTFTSDYSILLDKIAQ[Aib]AFIKYLIEGGPSSGAPPPS-NH2
modifications: not fully specified (residue 24)
B2: Example 35 (peptide)
peptide: Y[Aib]EGTFTSDYSILLDKIAQ[Aib]AFIEYK([AEEA-AEEA-γGlu-C20 diacid])IEGGPSSGAPPPS-NH2
modifications: N-terminus assumed
SMILES: CC[C@H](C)[C@H](NC(=O)[C@H](CCCCN)NC(=O)[C@H](CC(=O)O)NC(=O)[C@H](CC(C)C)NC(=O)[C@H](CC(C)C)NC(=O)[C@@H](NC(=O)[C@H](CO)NC(=O)[C@H](Cc1ccc(O)cc1)NC(=O)[C@H](CC(=O)O)NC(=O)[C@H](CO)NC(=O)[C@@H](NC(=O)[C@H](Cc1ccccc1)NC(=O)[C@@H](NC(=O)CNC(=O)[C@H](CCC(=O)O)NC(=O)C(C)(C)NC(=O)[C@@H](N)Cc1ccc(O)cc1)[C@@H](C)O)[C@@H](C)O)[C@@H](C)CC)C(=O)N[C@@H](C)C(=O)N[C@@H](CCC(N)=O)C(=O)NC(C)(C)C(=O)N[C@@H](C)C(=O)N[C@@H](Cc1ccccc1)C(=O)N[C@H](C(=O)N[C@@H](CCC(=O)O)C(=O)N[C@@H](Cc1ccc(O)cc1)C(=O)N[C@@H](CCCCNC(=O)COCCOCCNC(=O)COCCOCCNC(=O)CC[C@H](NC(=O)CCCCCCCCCCCCCCCCCCC(=O)O)C(=O)O)C(=O)N[C@H](C(=O)N[C@@H](CCC(=O)O)C(=O)NCC(=O)NCC(=O)N1CCC[C@H]1C(=O)N[C@@H](CO)C(=O)N[C@@H](CO)C(=O)NCC(=O)N[C@@H](C)C(=O)N1CCC[C@H]1C(=O)N1CCC[C@H]1C(=O)N1CCC[C@H]1C(=O)N[C@@H](CO)C(N)=O)[C@@H](C)CC)[C@@H](C)CC
B3: Example 32 (peptide)
peptide: Y[Aib]EGTFTSDYSILLDKIAQ[Aib]K([AEEA-AEEA-γGlu-C20 diacid])FIEYLIEGGPSSGAPPPS-NH2
modifications: N-terminus assumed
SMILES: CC[C@H](C)[C@H](NC(=O)[C@H](CCCCN)NC(=O)[C@H](CC(=O)O)NC(=O)[C@H](CC(C)C)NC(=O)[C@H](CC(C)C)NC(=O)[C@@H](NC(=O)[C@H](CO)NC(=O)[C@H](Cc1ccc(O)cc1)NC(=O)[C@H](CC(=O)O)NC(=O)[C@H](CO)NC(=O)[C@@H](NC(=O)[C@H](Cc1ccccc1)NC(=O)[C@@H](NC(=O)CNC(=O)[C@H](CCC(=O)O)NC(=O)C(C)(C)NC(=O)[C@@H](N)Cc1ccc(O)cc1)[C@@H](C)O)[C@@H](C)O)[C@@H](C)CC)C(=O)N[C@@H](C)C(=O)N[C@@H](CCC(N)=O)C(=O)NC(C)(C)C(=O)N[C@@H](CCCCNC(=O)COCCOCCNC(=O)COCCOCCNC(=O)CC[C@H](NC(=O)CCCCCCCCCCCCCCCCCCC(=O)O)C(=O)O)C(=O)N[C@@H](Cc1ccccc1)C(=O)N[C@H](C(=O)N[C@@H](CCC(=O)O)C(=O)N[C@@H](Cc1ccc(O)cc1)C(=O)N[C@@H](CC(C)C)C(=O)N[C@H](C(=O)N[C@@H](CCC(=O)O)C(=O)NCC(=O)NCC(=O)N1CCC[C@H]1C(=O)N[C@@H](CO)C(=O)N[C@@H](CO)C(=O)NCC(=O)N[C@@H](C)C(=O)N1CCC[C@H]1C(=O)N1CCC[C@H]1C(=O)N1CCC[C@H]1C(=O)N[C@@H](CO)C(N)=O)[C@@H](C)CC)[C@@H](C)CC
B4: Example 37 (peptide)
peptide: Y[Aib]EGTFTSDYSILLDKIAQ[Aib]AFIEYLIK([AEEA-AEEA-γGlu-C20 diacid])GGPSSGAPPPS-NH2
modifications: N-terminus assumed
SMILES: CC[C@H](C)[C@H](NC(=O)[C@H](CCCCN)NC(=O)[C@H](CC(=O)O)NC(=O)[C@H](CC(C)C)NC(=O)[C@H](CC(C)C)NC(=O)[C@@H](NC(=O)[C@H](CO)NC(=O)[C@H](Cc1ccc(O)cc1)NC(=O)[C@H](CC(=O)O)NC(=O)[C@H](CO)NC(=O)[C@@H](NC(=O)[C@H](Cc1ccccc1)NC(=O)[C@@H](NC(=O)CNC(=O)[C@H](CCC(=O)O)NC(=O)C(C)(C)NC(=O)[C@@H](N)Cc1ccc(O)cc1)[C@@H](C)O)[C@@H](C)O)[C@@H](C)CC)C(=O)N[C@@H](C)C(=O)N[C@@H](CCC(N)=O)C(=O)NC(C)(C)C(=O)N[C@@H](C)C(=O)N[C@@H](Cc1ccccc1)C(=O)N[C@H](C(=O)N[C@@H](CCC(=O)O)C(=O)N[C@@H](Cc1ccc(O)cc1)C(=O)N[C@@H](CC(C)C)C(=O)N[C@H](C(=O)N[C@@H](CCCCNC(=O)COCCOCCNC(=O)COCCOCCNC(=O)CC[C@H](NC(=O)CCCCCCCCCCCCCCCCCCC(=O)O)C(=O)O)C(=O)NCC(=O)NCC(=O)N1CCC[C@H]1C(=O)N[C@@H](CO)C(=O)N[C@@H](CO)C(=O)NCC(=O)N[C@@H](C)C(=O)N1CCC[C@H]1C(=O)N1CCC[C@H]1C(=O)N1CCC[C@H]1C(=O)N[C@@H](CO)C(N)=O)[C@@H](C)CC)[C@@H](C)CC
B5: Example 33 (peptide)
peptide: Y[Aib]EGTFTSDYSILLDKIAQ[Aib]AFK([AEEA-AEEA-γGlu-C20 diacid])EYLIEGGPSSGAPPPS-NH2
B6: Example 36 (peptide)
peptide: Y[Aib]EGTFTSDYSILLDKIAQ[Aib]AFIEYLK([AEEA-AEEA-γGlu-C20 diacid])EGGPSSGAPPPS-NH2
modifications: N-terminus assumed
SMILES: CC[C@H](C)[C@H](NC(=O)[C@H](CCCCN)NC(=O)[C@H](CC(=O)O)NC(=O)[C@H](CC(C)C)NC(=O)[C@H](CC(C)C)NC(=O)[C@@H](NC(=O)[C@H](CO)NC(=O)[C@H](Cc1ccc(O)cc1)NC(=O)[C@H](CC(=O)O)NC(=O)[C@H](CO)NC(=O)[C@@H](NC(=O)[C@H](Cc1ccccc1)NC(=O)[C@@H](NC(=O)CNC(=O)[C@H](CCC(=O)O)NC(=O)C(C)(C)NC(=O)[C@@H](N)Cc1ccc(O)cc1)[C@@H](C)O)[C@@H](C)O)[C@@H](C)CC)C(=O)N[C@@H](C)C(=O)N[C@@H](CCC(N)=O)C(=O)NC(C)(C)C(=O)N[C@@H](C)C(=O)N[C@@H](Cc1ccccc1)C(=O)N[C@H](C(=O)N[C@@H](CCC(=O)O)C(=O)N[C@@H](Cc1ccc(O)cc1)C(=O)N[C@@H](CC(C)C)C(=O)N[C@@H](CCCCNC(=O)COCCOCCNC(=O)COCCOCCNC(=O)CC[C@H](NC(=O)CCCCCCCCCCCCCCCCCCC(=O)O)C(=O)O)C(=O)N[C@@H](CCC(=O)O)C(=O)NCC(=O)NCC(=O)N1CCC[C@H]1C(=O)N[C@@H](CO)C(=O)N[C@@H](CO)C(=O)NCC(=O)N[C@@H](C)C(=O)N1CCC[C@H]1C(=O)N1CCC[C@H]1C(=O)N1CCC[C@H]1C(=O)N[C@@H](CO)C(N)=O)[C@@H](C)CC
B7: Example 38 (peptide)
peptide: Y[Aib]EGTFTSDYSILLDKIAQ[Aib]AFIEYLIEK([AEEA-AEEA-γGlu-C20 diacid])GPSSGAPPPS-NH2
modifications: N-terminus assumed
SMILES: CC[C@H](C)[C@H](NC(=O)[C@H](CCCCN)NC(=O)[C@H](CC(=O)O)NC(=O)[C@H](CC(C)C)NC(=O)[C@H](CC(C)C)NC(=O)[C@@H](NC(=O)[C@H](CO)NC(=O)[C@H](Cc1ccc(O)cc1)NC(=O)[C@H](CC(=O)O)NC(=O)[C@H](CO)NC(=O)[C@@H](NC(=O)[C@H](Cc1ccccc1)NC(=O)[C@@H](NC(=O)CNC(=O)[C@H](CCC(=O)O)NC(=O)C(C)(C)NC(=O)[C@@H](N)Cc1ccc(O)cc1)[C@@H](C)O)[C@@H](C)O)[C@@H](C)CC)C(=O)N[C@@H](C)C(=O)N[C@@H](CCC(N)=O)C(=O)NC(C)(C)C(=O)N[C@@H](C)C(=O)N[C@@H](Cc1ccccc1)C(=O)N[C@H](C(=O)N[C@@H](CCC(=O)O)C(=O)N[C@@H](Cc1ccc(O)cc1)C(=O)N[C@@H](CC(C)C)C(=O)N[C@H](C(=O)N[C@@H](CCC(=O)O)C(=O)N[C@@H](CCCCNC(=O)COCCOCCNC(=O)COCCOCCNC(=O)CC[C@H](NC(=O)CCCCCCCCCCCCCCCCCCC(=O)O)C(=O)O)C(=O)NCC(=O)N1CCC[C@H]1C(=O)N[C@@H](CO)C(=O)N[C@@H](CO)C(=O)NCC(=O)N[C@@H](C)C(=O)N1CCC[C@H]1C(=O)N1CCC[C@H]1C(=O)N1CCC[C@H]1C(=O)N[C@@H](CO)C(N)=O)[C@@H](C)CC)[C@@H](C)CC

Molecular target: T1, human GIP receptor
Experiment: cell-based or functional assay

Binder	hGIPR cAMP EC50 ratio	hGIPR cAMP Rel EC50 [nM]
B1	0.393	0.36
B2	1.58	0.0905
B3	0.84	0.179
B4	0.532	0.269
B5	0.00222	63.3
B6	0.458	0.309
B7	0.967	0.147

Molecular target: human GLP-1 receptor (human, UniProt P43220 24-463)
Experiment: cell-based or functional assay

Binder	hGLP1R cAMP EC50 ratio	hGLP1R cAMP Rel EC50 [nM]
B1	0.0392	1.56
B2	0.00728	8.38
B3	0.136	0.498
B4	0.0533	1.15
B5	0.000256	251
B6	0.0268	2.29
B7	0.0217	2.82
